Laboratory results published in patent EP4818205A1 (Beijing Wisdomab Biotechnology Co., Ltd, dated 2026).
Changes are numbered by the printed parent chain. Read-outs that look alike come from different tables or passages of the source.

Experiments:
[1] = target: T1, recombinant protein His-fib-hTL1A (human); assay: cell-based or functional assay
T1 chain: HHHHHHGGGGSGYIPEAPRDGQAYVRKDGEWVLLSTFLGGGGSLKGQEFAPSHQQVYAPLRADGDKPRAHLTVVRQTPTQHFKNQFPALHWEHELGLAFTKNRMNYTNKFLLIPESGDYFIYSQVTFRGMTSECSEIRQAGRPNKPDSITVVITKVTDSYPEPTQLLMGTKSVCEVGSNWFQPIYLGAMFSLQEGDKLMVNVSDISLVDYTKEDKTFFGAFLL

[2] = target: T1, recombinant protein His-fib-hTL1A; assay: cell-based or functional assay
[3] = target: T2, recombinant protein His-fib-mTL1A (mouse); assay: SPR, Biacore T200; antibody captured by anti-human IgG (Fc), TL1A as analyte
T2 construct: also called mouse TL1A
T2 chain: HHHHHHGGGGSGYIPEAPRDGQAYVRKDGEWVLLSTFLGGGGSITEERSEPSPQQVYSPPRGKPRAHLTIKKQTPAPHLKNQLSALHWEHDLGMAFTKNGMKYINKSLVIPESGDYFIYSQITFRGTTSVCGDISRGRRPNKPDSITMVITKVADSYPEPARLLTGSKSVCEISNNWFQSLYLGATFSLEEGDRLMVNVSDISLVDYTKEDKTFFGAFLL

[4] = target: T1, recombinant protein His-fib-hTL1A; assay: SPR, Biacore T200; antibody captured by anti-human IgG (Fc), TL1A as analyte; 1:1 model
[5] = target: T3, recombinant protein His-fib-mfTL1A (Macaca fascicularis); assay: as above
T3 construct: also called monkey TL1A; Macaca fascicularis TL1A
T3 chain: T1 chain with F82L, I121V

[6] = target: T1, recombinant protein His-fib-hTL1A; assay: cell-based or functional assay
[7] = target: T1, recombinant protein His-fib-hTL1A; assay: cell-based or functional assay
[8] = target: T1, recombinant protein His-fib-hTL1A; assay: cell-based or functional assay
[9] = target: T2, recombinant protein His-fib-mTL1A; assay: SPR, Biacore T200; antibody captured by anti-human IgG (Fc), TL1A as analyte; 1:1 model
[10] = target: T1, recombinant protein His-fib-hTL1A; assay: as above
[11] = target: T2, recombinant protein His-fib-mTL1A; assay: as above
[12] = target: T4, recombinant protein His-fib-rTL1A (rat); assay: as above
T4 construct: also called rat TL1A
T4 chain: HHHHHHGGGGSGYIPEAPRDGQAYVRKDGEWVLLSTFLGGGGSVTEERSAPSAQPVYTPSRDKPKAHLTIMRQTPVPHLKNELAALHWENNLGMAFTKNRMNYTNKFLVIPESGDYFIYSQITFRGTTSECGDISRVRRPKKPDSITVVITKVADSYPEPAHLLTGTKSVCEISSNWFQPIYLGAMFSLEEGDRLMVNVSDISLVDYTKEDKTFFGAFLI

[13] = target: T3, recombinant protein His-fib-mfTL1A; assay: as above
[14] = target: T4, recombinant protein His-fib-rTL1A; assay: SPR, Biacore T200; antibody captured by anti-human IgG (Fc), TL1A as analyte

B1: mouse anti-TL1A monoclonal antibody S4D3 (antibody, V domains shown)
VH: QVQLKESGSDLATPGASVKLSCKVSGYTFTKYDINWVRQRPEQGLEWIGWIFPGDGRTDYNEKFKGKATLTIDTSSSTAYMQLSRLTSEDSAVYFCARYGYALDYWGQGTSVTVSS
VL: DVVMTQTPLSLPVSLGDQASISCRSSQNIVHSNGDTYLEWFLQKPGQSPKLLIYKVSNRFSGVPDRFSGSGSGTDFTLKISRVEAEDLGVYYCFQGSHFPYTFGGGTKLEMKR
IC50 of inhibition of caspase-3/7 activation in TL1A-stimulated TF-1 cells [1]: 3.05 nM
IC50 of inhibition of NF-kB activation in TL1A-stimulated 293T-hDR3-NF-kB-RE-luci cells [2]: 1.13 nM
binding result [3]: no binding
Kd [4]: 0.247 nM
koff [4]: 0.000131 s⁻¹
kon [4]: 532000 M⁻¹ s⁻¹
Kd [5]: 0.0489 nM
koff [5]: 6.31e-05 s⁻¹
kon [5]: 1.29e+06 M⁻¹ s⁻¹

B2: anti-TL1A monoclonal antibody RVT-3101 (antibody, V domains shown)
VH: QVQLVQSGAEVKKPGASVKVSCKASGYDFTYYGISWVRQAPGQGLEWMGWISTYNGNTHYARMLQGRVTMTTDTSTRTAYMELRSLRSDDTAVYYCARENYYGSGAYRGGMDVWGQGTTVTVSS
VL: EIVLTQSPATLSLSPGERATLSCRASQSVSSYLAWYQQKPGQAPRLLIYDASNRATGIPARFSGSGSGTDFTLTISSLEPEDFAVYYCQQRSNWPWTFGQGTKVEIK
IC50 of inhibition of caspase-3/7 activation in TL1A-stimulated TF-1 cells [1]: 3.13 nM
IC50 of inhibition of NF-kB activation in TL1A-stimulated 293T-hDR3-NF-kB-RE-luci cells [2]: 1.28 nM
IC50 of inhibition of caspase activation in TL1A-stimulated TF-1 cells [6]: 3.46 nM
IC50 of inhibition of NF-kB activation in TL1A-stimulated 293T-hDR3-NF-kB-RE-luci cells [7]: 1.08 nM
IC50 of inhibition of interferon-gamma secretion by TL1A-stimulated PBMCs [8]: 13.6 nM
Kd [4]: 0.154 nM
koff [4]: 0.0001 s⁻¹
kon [4]: 652000 M⁻¹ s⁻¹
Kd [9]: 0.0482 nM
koff [9]: 4.36e-05 s⁻¹
kon [9]: 904000 M⁻¹ s⁻¹
Kd [5]: 0.0275 nM
koff [5]: 4.51e-05 s⁻¹
kon [5]: 1.64e+06 M⁻¹ s⁻¹
Kd [10]: 0.144 nM
koff [10]: 0.000102 s⁻¹
kon [10]: 706000 M⁻¹ s⁻¹
Kd [11]: 0.0775 nM
koff [11]: 5.92e-05 s⁻¹
kon [11]: 764000 M⁻¹ s⁻¹
Kd [12]: 0.434 nM
koff [12]: 0.000424 s⁻¹
kon [12]: 978000 M⁻¹ s⁻¹
Kd [13]: 0.05 nM
koff [13]: 6.7e-05 s⁻¹
kon [13]: 1.34e+06 M⁻¹ s⁻¹

B3: mouse anti-TL1A monoclonal antibody S9H9 (antibody, V domains shown)
VH: QVQLKQSGAELVRPGTSVKISCKASGYAFTNYWLGWIKQRPGHGLEWIGDIHPGRGNIFYNEKFKGKATLTADKSSSTAYMQLSSLTSEDSAVYFCAEGYDTFDYWGQGTTLTVSA
VL: DIVMTQSHKFMSTSVGDRVSITCKASQDVSTAVAWYQQKPGQSPKLLIYSASYRYTGVPDRFTGSGSGTDFTFTISSVQAEDLAVYYCQQHYSTPWTFGGGTKLEMKR
IC50 of inhibition of caspase-3/7 activation in TL1A-stimulated TF-1 cells [1]: 2.69 nM
IC50 of inhibition of NF-kB activation in TL1A-stimulated 293T-hDR3-NF-kB-RE-luci cells [2]: 1.28 nM
Kd [4]: 0.0374 nM
koff [4]: 0.000501 s⁻¹
kon [4]: 1.34e+07 M⁻¹ s⁻¹
Kd [9]: 37.2 nM
koff [9]: 0.00255 s⁻¹
kon [9]: 68600 M⁻¹ s⁻¹
Kd [5]: 0.0603 nM
koff [5]: 0.000175 s⁻¹
kon [5]: 2.9e+06 M⁻¹ s⁻¹

B4: mouse anti-TL1A monoclonal antibody S7B11 (antibody, V domains shown)
VH: B3 VH with Q3K, K5Q, A9G, F59Y, A116S
VL: DIVMTQSPSYLAASPGETITINCRASKSISKYLAWYQEKPGKTNKLLIYSGSTLQSGIPSRFSGSGSGTDFTLTISSLEPEDFAMYYCQQHNEYPYTFGGGTKLEIKR
IC50 of inhibition of caspase-3/7 activation in TL1A-stimulated TF-1 cells [1]: 2.69 nM
IC50 of inhibition of NF-kB activation in TL1A-stimulated 293T-hDR3-NF-kB-RE-luci cells [2]: 1.35 nM
Kd [4]: 0.234 nM
koff [4]: 0.00011 s⁻¹
kon [4]: 470000 M⁻¹ s⁻¹
Kd [9]: 53.5 nM
koff [9]: 0.00366 s⁻¹
kon [9]: 68300 M⁻¹ s⁻¹
Kd [5]: 0.052 nM
koff [5]: 6.93e-05 s⁻¹
kon [5]: 1.32e+06 M⁻¹ s⁻¹

B5: anti-TL1A monoclonal antibody PRA023 (antibody, V domains shown)
VH: QVQLVQSGAEVKKPGASVKVSCKASGFDIQDTYMHWVKQRPGQGLEWMGRIDPASGHTKYDPKFQVRVTITRDTSTSTVYLELSSLRSEDTAVYYCARSGGLPDVWGQGTTVTVSS
VL: EIVLTQSPGTLSLSPGERATLSCRASSSVSYMYWYQQKPGQAPRPLIYATSNLASGIPDRFSGSGSGTDFTLTISRLEPEDFAVYYCQQWEGNPRTFGGGTKLEIK
IC50 of inhibition of caspase activation in TL1A-stimulated TF-1 cells [6]: 6.52 nM
IC50 of inhibition of NF-kB activation in TL1A-stimulated 293T-hDR3-NF-kB-RE-luci cells [7]: 2.81 nM
IC50 of inhibition of interferon-gamma secretion by TL1A-stimulated PBMCs [8]: 6.54 nM
binding result [3]: no binding
binding result [14]: no binding
Kd [4]: 0.355 nM
koff [4]: 0.000169 s⁻¹
kon [4]: 476000 M⁻¹ s⁻¹
Kd [5]: 0.0802 nM
koff [5]: 9.01e-05 s⁻¹
kon [5]: 1.12e+06 M⁻¹ s⁻¹
Kd [10]: 0.355 nM
koff [10]: 0.000169 s⁻¹
kon [10]: 476000 M⁻¹ s⁻¹
Kd [13]: 0.0802 nM
koff [13]: 9.01e-05 s⁻¹
kon [13]: 1.12e+06 M⁻¹ s⁻¹
